According to publication PMC6019379, “RecA-like domain 2 of DNA-dependent ATPase A domain, a SWI2/SNF2 protein, mediates conformational integrity and ATP hydrolysis” (Bioscience Reports, 2018):

Target: T1, ADAAD F507A/R592A (Bos taurus (bovine), UniProt Q9TTA5 221-940, F727A;R812A)
T1 sequence: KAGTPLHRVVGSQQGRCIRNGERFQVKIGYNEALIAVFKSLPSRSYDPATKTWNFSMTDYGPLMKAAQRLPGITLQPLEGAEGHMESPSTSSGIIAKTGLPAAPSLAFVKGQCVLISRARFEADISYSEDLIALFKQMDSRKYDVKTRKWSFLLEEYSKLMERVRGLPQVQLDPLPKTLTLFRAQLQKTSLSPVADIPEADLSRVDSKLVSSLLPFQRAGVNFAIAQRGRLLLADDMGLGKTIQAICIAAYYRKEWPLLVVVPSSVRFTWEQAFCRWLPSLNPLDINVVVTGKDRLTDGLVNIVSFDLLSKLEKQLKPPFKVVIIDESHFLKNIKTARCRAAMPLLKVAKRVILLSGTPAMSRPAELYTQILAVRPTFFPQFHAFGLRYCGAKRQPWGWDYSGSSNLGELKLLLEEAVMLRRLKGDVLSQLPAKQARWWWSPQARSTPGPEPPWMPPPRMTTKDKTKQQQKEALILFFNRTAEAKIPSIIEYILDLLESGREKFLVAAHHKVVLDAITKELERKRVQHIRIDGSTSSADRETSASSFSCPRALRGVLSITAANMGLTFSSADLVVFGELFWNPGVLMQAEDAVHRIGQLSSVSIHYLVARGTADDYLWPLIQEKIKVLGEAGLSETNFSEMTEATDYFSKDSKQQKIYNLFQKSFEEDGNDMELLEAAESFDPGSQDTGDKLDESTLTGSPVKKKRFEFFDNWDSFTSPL
Assay: intrinsic tryptophan fluorescence titration; no ATP; Fluorescence titration (ex 295 nm, em 340 nm), one-site saturation fit; buffer, salt, pH and temperature not given in the material. Wild-type ADAAD Kd values are cited from ref 24 and not listed
Conditions: protein: recombinant; tags: His (Ni-NTA, pET-14b); hairpin

B1: slDNA (stem-loop DNA) (structured_DNA)
DNA: GCGCAATTGCGCTCGACGATTTTTTAGCGCAATTGCGC
- Kd: 27.8 ± 3.6 nM
